Experiments:
[1] = biological target: MD145 virus-like particle (GII.4, capsid protein VP1) (Norovirus GII.4 strain MD145-12); assay: SPR (Biacore 1000), Fab on MD145 virus-like particle
bovine serum albumin [2] = biological target: T1, bovine serum albumin (bovine, UniProt P02769 25-607); assay: ELISA, antigen coated directly on the plate
T1 construct: Control antigen; also called BSA

bovine serum albumin [3] = biological target: T1, bovine serum albumin; assay: ELISA, antigen on the solid phase, soluble Fab
[4] = biological target: MD145 virus-like particle (GII.4, capsid protein VP1) (Norovirus GII.4 strain MD145-12)
[5] = biological target: T2, Norwalk virus (NV, GI.1) recombinant virus-like particles (capsid protein VP1) (Norwalk virus, UniProt Q83884 1-530)
T2 sequence: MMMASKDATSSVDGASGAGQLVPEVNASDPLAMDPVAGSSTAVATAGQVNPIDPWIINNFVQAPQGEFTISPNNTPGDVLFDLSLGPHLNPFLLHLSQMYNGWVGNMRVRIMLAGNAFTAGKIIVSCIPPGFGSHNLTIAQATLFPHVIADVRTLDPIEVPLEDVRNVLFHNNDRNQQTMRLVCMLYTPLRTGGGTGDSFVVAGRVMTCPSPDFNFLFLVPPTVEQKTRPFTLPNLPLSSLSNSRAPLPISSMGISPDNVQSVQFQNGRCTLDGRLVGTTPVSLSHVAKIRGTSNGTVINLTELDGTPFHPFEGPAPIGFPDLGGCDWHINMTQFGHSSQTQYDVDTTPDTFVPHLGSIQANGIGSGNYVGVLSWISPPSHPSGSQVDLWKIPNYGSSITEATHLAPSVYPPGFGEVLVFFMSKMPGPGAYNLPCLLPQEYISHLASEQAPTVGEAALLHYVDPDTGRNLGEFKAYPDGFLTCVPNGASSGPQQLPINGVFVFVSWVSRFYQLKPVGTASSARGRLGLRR

T1 sequence (P02769 25-607 limits assumed): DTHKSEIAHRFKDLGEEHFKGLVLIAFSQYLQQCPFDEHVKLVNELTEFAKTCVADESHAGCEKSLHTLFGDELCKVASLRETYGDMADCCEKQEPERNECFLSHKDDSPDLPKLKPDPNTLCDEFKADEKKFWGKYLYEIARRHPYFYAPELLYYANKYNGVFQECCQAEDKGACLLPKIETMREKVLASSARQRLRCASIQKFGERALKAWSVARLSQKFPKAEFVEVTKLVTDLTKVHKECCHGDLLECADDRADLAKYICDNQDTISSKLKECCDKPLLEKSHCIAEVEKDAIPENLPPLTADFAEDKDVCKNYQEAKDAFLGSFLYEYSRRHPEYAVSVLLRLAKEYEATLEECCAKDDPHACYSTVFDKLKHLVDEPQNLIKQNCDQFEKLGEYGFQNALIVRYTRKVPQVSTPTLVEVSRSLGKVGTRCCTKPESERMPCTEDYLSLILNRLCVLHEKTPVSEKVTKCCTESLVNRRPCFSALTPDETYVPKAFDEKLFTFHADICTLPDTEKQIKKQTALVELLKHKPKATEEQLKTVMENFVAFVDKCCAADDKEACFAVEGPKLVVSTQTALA

B1: anti-GII.4 NV Fab C9 (Fab, V domains shown)
VH: EVQLEESGGVLVKPGGSLRLSCAASGFTFSSHAMHWVRQAPGKGLEWVAIINSGHRADYADSVKDRFTISRDNSKNTLYLQMDSLRPEDTAFYYCAREGDQQDVAD
VL: ELTQSPSTLSASVGDRVTITCRASEDIMSYLAWYQQKPAKAPRLLIYYASSLQSGVPSRFSGSGSGTEFTLTISSLQPEDFATYYCQQLHTFPITFGPGTRLDIKRT
B1 gave a Kd [1] of 27.7 nM, a koff [1] of 0.00382 s⁻¹ and a kon [1] of 138000 M⁻¹ s⁻¹.

B2: anti-NV Fab D8 (Fab, V domains shown)
VH: EVQLEESGGGLVQPGGSLRVSCAASGFPFNGYWIHWVRQAPGKGLEWVSRVNSDGRITNFADSVMGRFTMSRDNAKSTVYLQMNSLRAEDTAMYYCSRGGYTGYPEGHWGQGTLVTVS
VL: ELQMTQSPSSLSAAVGDSVTITCRASQGISIHLAWYQQKPGKVPNLLIYAASTLQSGVPSRFSGSGSGTDFTLTINSLQPEVFATYYCQKYDSAPFTFGPGTKVDIKR
B2: no binding (bovine serum albumin [2]).

B3: anti-NV Fab B7 (Fab, V domains shown)
VH: EVQLEESGGDLVQPGGSLTLSCAASGFTFSRYWMSWVRQAPGKGPEWVASIKKDGSETFYADSVKGRFIISRDIAKTSLYLQMNSLRADDTAVYYCLRAWYSSAYDFWGQGTLVTVS
VL: ELELTQSPSSLSASVGDRVTITCRASQSISNYLNWYQQKPGKAPNLLIYYASTLQSGVPSRFSGSGSGTDFTLTISSLQPEDFATYYCQHGYGAIAFGQGTRLEIKR
B3: no binding (bovine serum albumin [3]).

B4: anti-NV Fab F11 (Fab, V domains shown)
VH: EVQLVETGGSLVQPGGSLRLSCAASGFSVSIYHMSWVRQAPGKGLEWVSLLYSGGSTYYADSVKGRFTISRDNSKNTLYLQMNSLRAEDTAVYYCARDYSGSWVGDEARSYYYYYYMDVWGKGTTVTVS
VL: ELQVTQSPSSLSASVGDRVTITCQASQDISYYLNWYQQRPGKVPKLLIYSASYLHSGVPSRFSGSGSGTDFTLTISSLQPEDVATYYCQRTYNAPYTFGQGTKVEIKR
B4: no binding (bovine serum albumin [3]).

B5: anti-NoV GII.4 mAb D4 (IgG) (antibody, V domains shown)
VH: EVQLVESGPGLVKPSETLSLTCAVSGASIRRANWWGWIRQAPGKGLEWLGSIFINAGTIYNPSLTGRVTVSADTSKNLFSLKLGSVTAADTAVYYCVKSYGDGDDNYNSFYYYMDVWGKGTSVIVSS
VL: DVVMTQSPSSLSASVGDRVTITCRASQDIRNNLAWYQHKPGKAPKLLIYYASKLQSGVPLRFSGSGSGTDYTLFISSLQPEDFATYYCQQYKTDTPYSFGQGTKVDIKR
Work on B5 yielded an IC50 (read off the curve) [4] of 1 µg/mL.

B6: anti-GII.4 NV Fab D4 (Fab, V domains shown)
VH: EVQLVESGPGLVKPSETLSLTCAVSGASIRRANWWGWIRQAPGKGLEWLGSIFINAGTIYNPSLTGRVTVSADTSKNLFSLKLGSVTAADTAVYYCVKSYGDGDDNYNSFYYYMDVWGKGTSVIVSS
VL: DVVMTQSPSSLSASVGDRVTITCRASQDIRNNLAWYQHKPGKAPKLLIYYASKLQSGVPLRFSGSGSGTDYTLFISSLQPEDFATYYCQQYKTDTPYSFGQGTKVDIKR
B6 gave a Kd [1] of 0.121 nM, a koff [1] of 0.000178 s⁻¹ and a kon [1] of 1.47e+06 M⁻¹ s⁻¹.

B7: anti-NoV GII.4 mAb G3 (IgG) (antibody, V domains shown)
VH: EVQLEQSGGGLVKPGGSLRLSCAGSGFSFSAHTINWVRQAPGKGLEWVGFIRSQAQGGTREYAASVKGRIILSRDDSENSAYLQMNSLNTGDTAVYYCARDSSRGYYSYYLDVWGKGTTVTVSS
VL: ELTQSPSSLSASVGDRVTITCRASQGISNRLNWYQQKPGKAPKLLIYDASSLESGVPSRFSGSGSGTDFTLTISSQQPEDFATYYCQQFNSYPLTFGGGTKVEIKR
In the case of B7, the IC50 (read off the curve) [4] is reported as 1 µg/mL.

B8: anti-GII.4 NV Fab G3 (Fab, V domains shown)
VH: EVQLEQSGGGLVKPGGSLRLSCAGSGFSFSAHTINWVRQAPGKGLEWVGFIRSQAQGGTREYAASVKGRIILSRDDSENSAYLQMNSLNTGDTAVYYCARDSSRGYYSYYLDVWGKGTTVTVSS
VL: ELTQSPSSLSASVGDRVTITCRASQGISNRLNWYQQKPGKAPKLLIYDASSLESGVPSRFSGSGSGTDFTLTISSQQPEDFATYYCQQFNSYPLTFGGGTKVEIKR
B8 was tested, and the Kd [1] was 2.61 nM, the koff [1] was 0.000421 s⁻¹ and the kon [1] was 162000 M⁻¹ s⁻¹.

B9: anti-NV Fab E5 (Fab, V domains shown)
VH: EVQLEQSGGGLIKPGGSLRLSCAASGFTFTKYVMHWVRQAPEKGLQWVSAIGGSGGSAWYADSVKGRFTISRDNSKNTLYLQMNSLRAEDTAVYYCARDHARYSGYNSPHEVDSWGQGTLVAVS
VL: ELELTQSPSSLSASVGDRVTITCRASQGISNYLAWYQQKPGKVPKLLIYAASTLQSGVPSRFSGSGSGTDFTLTISSLQPEDVATYYCQKYNSAPLTFGGGTKVEIKR
notes: also called ES [sic]
B9: no binding (bovine serum albumin [3]).

B10: anti-NV IgG G4 (antibody, V domains shown)
VH: EVQLEESGGGLVKPGGSLRLSCAASGFTFSHYVMYWVRQAPEKGLEWVSTISGSGSSTWYPDSVKGRFTVSRDNSKNTLYLQMNSLRGDDTAVYYCARLQGQLVYWGLGTLVTVS
VL: ELQMTQSPSTLSASVGDRVTITCRASQGISSWLAWYQQKPGRAPKLLIYKSSTLESGVPSRFSGSGSGTEFTLTISSLQPDDFATYFCQQYSSNPPLTFGGGTKVEIKR
B10 showed an IC50 [5] of about 2.8 nM.

B11: anti-GII.4 NV Fab B72 (Fab, V domains shown)
VH: EVQLEQSGAEVKKPGSSVKVSCKISGGTFSRHPISWVRQAPGQGLLWMGAIILRAGTTKYEQRFQGRITITADESTGTAYMELHSLTSEDTGLYFCATDRMGTFDELLFDSWGQGTLVTVSS
VL: ELQMTQSPASLSASVGDRVTITCRASQGIRNNLGWYQQKPGKPPKLLIYAASTLQSGVPSRFSGSGSGTGFTLTISSLQPEDFATYYCLQDYDFPLTFGGGTKVEIKR
B11 was tested, and the Kd [1] was 0.351 nM, the koff [1] was 5.66e-05 s⁻¹ and the kon [1] was 161000 M⁻¹ s⁻¹.
